{
  "source": "patent US20050113327",
  "test_system": "Actin of lily pollen tubes",
  "data": [
    {"substance": "autoclaved RNase B1", "values": [
      {"measurement": "lily pollen tube length after 2 h in vitro (control without RNase about 300 µm)", "value": "Boiling or autoclaving the RNase yielded pollen tubes of 130 and 170 µm in length, respectively"}
    ]},
    {"substance": "iodoacetylated (IAc-) RNase B1", "values": [
      {"measurement": "lily pollen tube length after 1.5 h in vitro (FIG. 31; control 0.26 mm)", "value": "IAc RNase B1 inhibits pollen tubes growth in a similar manner of non-modified RNase B1"}
    ]},
    {"substance": "RNase B1 boiled for 30 minutes", "values": [
      {"measurement": "lily pollen tube length after 2 h in vitro (control without RNase about 300 µm)", "value": "Boiling or autoclaving the RNase yielded pollen tubes of 130 and 170 µm in length, respectively"}
    ]},
    {"substance": "Aspergillus niger B1 extracellular RNase (RNase B1)", "values": [
      {"measurement": "actin filaments distribution in lily pollen tubes (TRITC-phalloidin staining)", "value": "in RNase-treated pollen tubes masses of actin were accumulated at the tip cell wall"},
      {"measurement": "lily pollen tube length after 1.5 h in vitro (FIG. 31; control 0.26 mm)", "value": "Both RNase B1 and IAc-RNase B1 exhibited a clear inhibitory effect on pollen tube growth"},
      {"measurement": "lily pollen tube length after 2 h in vitro (control without RNase about 300 µm)", "value": "reached only 160 µm in length"}
    ]}
  ]
}
